Measurements published in patent US20230095569A1 (ANTENGENE BIOLOGICS, published 2023).
Changes are numbered by the printed parent chain.

B1: chAb29 (antibody, V domains shown)
VH: EVLLQQSGPELVKPGASVKIPCKASGYTLTDHSMDWVKQSHGKSLEWIGNILPNNGGNIYNQKFRGKATLTVDKSSSTAYMELRSLTSEDTAVYNCARGHYGNSFAYWGQGTLVIVS
VL: DIVMTQSPSSLTVRAGEKVTIYCKSSQSLFNSGNQKNYLTWYQQKPGQPPKLLIYWASTRESGVPHRFTGSGSGTDFTLTISSMQADDLATYYCQNGYFFPYTFGGGTKLEIK
B2: chAb30 (antibody, V domains shown)
VH: QVQLKESGPGLVAPSQSLSITCTVSGFSLTKFGVNWVRQPPGKGLEWLGAIWGDGSTNYHSALISRLSINKDNSKSQVFLKLSSLQNVDTATYYCAKSGYGNAMDYWGHGTSVTVSS
VL: DIVMTQSPSSLTVTTGEKVTLNCKSSQSLLNSGNLKNYLTWYQQRPGQPPKLLIYWASTRESGVPYRFTGSGSGTDFTLTISNVQAEDLAIYYCQNDYFFPFTFGSGTKLEIK
B3: chAb17 (antibody, V domains shown)
VH: QVQLKESGPGLVAPSQSLSITCTVSGFSLTSYAISWVRQPPGKGLEWLGEIWTGGGTNYNSALKSRLSISKDNSKSQVFLKMNSLQTDDTARYYCGRLSYGNSLDYWGQGTTLTVSS
VL: DIVMTQSPSSLTVTAGEKVTMSCKSSQSLLNSGNQKNYLTWYQQKPGQPPKLLIYWASTRESGVPDRFTGSGSGTDFTLTVSSVQAEDLAVYYCQNNFIYPLTFGPGTKLELK
B4: chAb10 (antibody, V domains shown)
VH: EVMLVESGGGLVKPGGSLKLSCAASGFTFSSYTMSWVRQTPEKRLEWVATISVIGGNTYYVDSVKGRFTISRDKAKNTLYLQMSSLRSEDTALYYCARLGQTQRNAMDYWGQGTSVTVSS
VL: B3 VL with T12S, T14S, T40A, W56G, V81I, N97D, F98Y, I99S, P106A
B5: chAb06 (antibody, V domains shown)
VH: EVQLVASGGGLVKPGGSLKLSCAASGITFRSYAMSWVRQTPEKRLEWVATITDGGSYIFYPDNVKGRFTISGDHAKNNLYLQMSHLKSEDTALYFCVRLYYGNSFAYWGQGTLVTVSA
VL: B3 VL with M21L, S22N, L30F, V81F, N97A, F98Y, L102F, P106S, L112I
B6: chAb25 (antibody, V domains shown)
VH: EAQLQQSGPELVKPGASVKIFCKASGYTFTDYYINWVKQSHGKSLEWIGDINPNNGGTTYNQKFKGKATLTVDKSSSTASMELRRLTSEDSSVYYCARRDAMDYWGQGTSVTVSS
VL: DIVMTQSQKFMSTTVGDRVSITCTASQNVGPAVAWYQQKPGQSPKLLIYSASRRFTGVPDRFTGSGSGTVFTLTINNVQSEDLADYFCQQYISYPLTFGAGTKLELK
B7: IMAB362 (Zolbetuximab) (antibody, V domains shown)
VH: QVQLQQPGAELVRPGASVKLSCKASGYTFTSYWINWVKQRPGQGLEWIGNIYPSDSYTNYNQKFKDKATLTVDKSSSTAYMQLSSPTSEDSAVYYCTRSWRGNSFDYWGQGTTLTVSS
VL: DIVMTQSPSSLTVTAGEKVTMSCKSSQSLLNSGNQKNYLTWYQQKPGQPPKLLIYWASTRESGVPDRFTGSGSGTDFTLTISSVQAEDLAVYYCQNDYSYPFTFGSGTKLEIKR
B8: chAb24 (antibody, V domains shown)
VH: EVKLVESGGGLVKPGGSLKLSCAGSGFTFSSYTMSWVRQTPEKRLEWVATITIGVNIYYLDSVKGRFTISRDNAKNTLYLQMNSLRSEDTALYYCTRLGQTQRNAMDYWGQGTSVTVSS
VL: DIVMTQSPTSLSVSAGEKVTMTCKSSQSLFNSGNQKNYLAWYQEKPGQPPKLLIYGASTRESGVPDRFTGSGSGTDFTLTISSVQAEDLAVYYCQNVHFYPFTFGAGTKLEL
B9: chAb20 (antibody, V domains shown)
VH: B4 VH with A23V, S52I, V53G, I54G, G55Y, V61S, F68I, K74S, S84I, A97T
VL: B8 VL with V3L, T9S, T22N, F30L, E44Q, V97D, H98Y, F99Y
B10: chAb31 (antibody, V domains shown)
VH: QIQLAQSGPELKKPGETVKISCKASGYSFTNYGMNWVKQAPGKGLKWMGWINTYSGETKYADDFKGRFDFSLETSARTAYLQIKNLKIEDTATYFCARRDAMDYWGQGTSVTVSS
VL: DIVMTQAAPSVPVTPGESVSISCRSSKSLLNSNGNTYLYWFLQRPGQSPQLLIYRMSNLASGVPDRFSGSGSGTAFTLRISRVEAEDVGVYYCMQHLEFPFTFGSGTKLEIK
B11: chAb05 (antibody, V domains shown)
VH: DVKLVESGEDLVKPGGSLKLSCAASGFTFSNYAMSWVRQTPEKRLEWVAYVSSGGDYIYYADTVKGRFIISRDNARNTLYLQMNSLRSEDTAMYYCARVYFGNSLDYWGQGTTLTVSS
VL: DIVMTQSPSSLTVTAGEKVTLSCKSSQSLLNGGNQKNYLTWYQQRPGQPPKLLIYWASTRESGVPDRFTGSGSGTDFTLIISSVQAEDLAVYYCQNDYYYPWTFGGGTKLEIK

molecular target: T1, human Claudin18.2 (CLDN18.2) (human, UniProt P56856 1-261); experiment: FACS on CHOK1-18.2 cells
T1 construct: the cell line is named under assay; also called human Claudine18.2; hClaudin18.2

Row | Binder | EC50
1 | B1 | 6.63 nM
2 | B2 | 9.76 nM
3 | B3 | 4.74 nM
4 | B4 | 2.27 nM
5 | B5 | 5.42 nM
6 | B6 | 8.27 nM
7 | B7 | 5.69 nM
8 | B8 | 4.99 nM
9 | B9 | 3.88 nM
10 | B10 | 5.17 nM
11 | B11 | 5 nM

molecular target: T1, human Claudin18.2 (CLDN18.2); experiment: cell-based or functional assay

Row | Binder | CDC EC50 | Max CDC induced tumor cell killing (% of control)
12 | B1 | 12.7 nM | 67.8 % of control
13 | B2 | 23.2 nM | 76.1 % of control
14 | B3 | 9.93 nM | 70.8 % of control
15 | B4 | 2.69 nM | 82.7 % of control
16 | B5 | 9.72 nM | 75.4 % of control
17 | B6 | 25.4 nM | 72.9 % of control
18 | B7 | 809 nM | 52.5 % of control
19 | B8 | 12.8 nM | 70.7 % of control
20 | B9 | 8.82 nM | 73 % of control
21 | B10 | 37.9 nM | 60.7 % of control
22 | B11 | 17.8 nM | 78.9 % of control

molecular target: T1, human Claudin18.2 (CLDN18.2); experiment: cell-based or functional assay; remark: another data set of the same source

Row | Binder | ADCC EC50 | Max tumor cell killing (% of control), ADCC
23 | B1 | 5.27 nM | 60.9 % of control
24 | B2 | 7.44 nM | 80.2 % of control
25 | B3 | 2.46 nM | 60.6 % of control
26 | B4 | 1.68 nM | 55.2 % of control
27 | B5 | 3.01 nM | 40.6 % of control
28 | B6 | 8.38 nM | 76.8 % of control
29 | B7 | 36.1 nM | 30.7 % of control
30 | B8 | 4.46 nM | 66.6 % of control
31 | B9 | 4.14 nM | 62.9 % of control
32 | B10 | 8.16 nM | 78.8 % of control
33 | B11 | 5.92 nM | 57.9 % of control

molecular target: T1, human Claudin18.2 (CLDN18.2); experiment: FACS on GAXC031 cells, antibody at 50 µg/ml

Row | Binder | MAX MFI
34 | B1 | 5640
35 | B2 | 4460
36 | B3 | 4230
37 | B4 | 6940
38 | B5 | 5460
39 | B6 | 3020
40 | B7 | 742
41 | B8 | 5860
42 | B9 | 6260
43 | B10 | 3770
44 | B11 | 4600

molecular target: T1, human Claudin18.2 (CLDN18.2); experiment: FACS on CHOK1-18.2 cells, antibody at 50 µg/ml

Row | Binder | MAX MFI
45 | B1 | 63400
46 | B2 | 65000
47 | B3 | 83800
48 | B4 | 80400
49 | B5 | 92800
50 | B6 | 56100
51 | B7 | 49600
52 | B8 | 64500
53 | B9 | 65700
54 | B10 | 59900
55 | B11 | 83900

molecular target: T1, human Claudin18.2 (CLDN18.2); experiment: cell-based or functional assay; remark: another data set of the same source

Row | Binder | IC50 of indirect ADC cytotoxicity | Max inhibition %
56 | B1 | 0.91 nM | 93.5%
57 | B2 | 1.58 nM | 92.4%
58 | B3 | 0.88 nM | 92.4%
59 | B4 | 0.24 nM | 92.8%
60 | B5 | 0.61 nM | 91.8%
61 | B6 | 0.86 nM | 92.9%
62 | B7 | 4.75 nM | 81.8%
63 | B8 | 0.85 nM | 92.7%
64 | B9 | 0.47 nM | 92.8%
65 | B10 | 2.35 nM | 91.7%
66 | B11 | 0.99 nM | 92.3%

molecular target: T1, human Claudin18.2 (CLDN18.2); experiment: FACS on GAXC031 cells

Row | Binder | EC50
67 | B3 | 94.2 nM
68 | B4 | 29.2 nM
69 | B7 | 36.1 nM
70 | B9 | 42.9 nM
71 | B11 | 73.8 nM
